# Measured values reported in the supplement of paper PMC9112550, “Optimization of the antimicrobial peptide Bac7 by deep mutational scanning” (BMC Biology, 2022).
# Tested on: Escherichia coli TOP10
# Test: shrunken log2 fold change of peptide-encoding DNA abundance (4.5 h post-induction vs induction); higher = less antimicrobial activity (less host growth inhibition)
# Conditions: time post-induction: 4.5 h; library: site-saturation at positions 5, 18, 19, 20
# 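Further: peptides expressed intracellularly from a pBAD plasmid library in pooled LB shake-flask culture, induced with 0.3% L-arabinose, DNA abundance read by NGS, three biological replicates, DESeq2 with apeglm shrinkage.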
row,Sequence,shrunken log2 fold change
1,RRIRIRPPRLPRPRPRPFFVPRP,-0.294
2,RRIRHRPPRLPRPRPRPMNYPRP,-0.316
3,RRIRVRPPRLPRPRPRPEAQPRP,0.112
4,RRIRCRPPRLPRPRPRPARYPRP,-0.438
5,RRIRKRPPRLPRPRPRPFIVPRP,-0.345
6,RRIRPRPPRLPRPRPRPEMDPRP,0.116
7,RRIRWRPPRLPRPRPRPATEPRP,0.479
8,RRIRLRPPRLPRPRPRPEPTPRP,-0.00556
9,RRIRHRPPRLPRPRPRPERCPRP,-0.078
10,RRIRTRPPRLPRPRPRPFFKPRP,-0.303
11,RRIRPRPPRLPRPRPRPVQIPRP,-0.13
12,RRIRVRPPRLPRPRPRPVGMPRP,-0.0289
13,RRIRSRPPRLPRPRPRPTGSPRP,0.0396
14,RRIRSRPPRLPRPRPRPSCRPRP,-0.0379
15,RRIRIRPPRLPRPRPRPVIMPRP,-0.334
16,RRIRLRPPRLPRPRPRPKMHPRP,0.0307
17,RRIRMRPPRLPRPRPRPSPGPRP,0.564
18,RRIRRRPPRLPRPRPRPRIVPRP,0.00997
19,RRIRLRPPRLPRPRPRPRNEPRP,-0.0675
20,RRIRLRPPRLPRPRPRPTHGPRP,0.213
21,RRIRPRPPRLPRPRPRPKIEPRP,0.0313
22,RRIRCRPPRLPRPRPRPNWQPRP,-0.145
23,RRIRYRPPRLPRPRPRPFIAPRP,-1.12
24,RRIRCRPPRLPRPRPRPFWSPRP,-0.331
25,RRIRYRPPRLPRPRPRPPMKPRP,-0.137

row,Sequence,shrunken log2 fold change
1,RRIRKRPPRLPRPRPRPVEIPRP,0.0372
2,RRIRVRPPRLPRPRPRPAMHPRP,0.0999
3,RRIRWRPPRLPRPRPRPWGCPRP,0.423
4,RRIRWRPPRLPRPRPRPHRWPRP,0.103
5,RRIRCRPPRLPRPRPRPVLSPRP,-0.192
6,RRIRIRPPRLPRPRPRPENDPRP,-0.312
7,RRIRGRPPRLPRPRPRPTDSPRP,0.526
8,RRIRSRPPRLPRPRPRPGGKPRP,0.0269
9,RRIRSRPPRLPRPRPRPKMDPRP,0.232
10,RRIRRRPPRLPRPRPRPTQQPRP,0.707
11,RRIRSRPPRLPRPRPRPGKDPRP,0.099
12,RRIRERPPRLPRPRPRPCPPPRP,-0.0496
13,RRIRVRPPRLPRPRPRPCMVPRP,-0.614
14,RRIRCRPPRLPRPRPRPLDVPRP,-0.41
15,RRIRNRPPRLPRPRPRPHKKPRP,-0.00756
16,RRIRKRPPRLPRPRPRPQENPRP,0.256
17,RRIRHRPPRLPRPRPRPCMRPRP,0.0267
18,RRIRGRPPRLPRPRPRPPVRPRP,0.859
19,RRIRCRPPRLPRPRPRPKLMPRP,-0.0168
20,RRIRGRPPRLPRPRPRPKWPPRP,0.322
21,RRIRERPPRLPRPRPRPPTRPRP,0.254
22,RRIRMRPPRLPRPRPRPWFYPRP,-0.418
23,RRIRLRPPRLPRPRPRPGHKPRP,-0.275
24,RRIRFRPPRLPRPRPRPHNWPRP,-0.122
25,RRIRDRPPRLPRPRPRPVKWPRP,0.00911

row,Sequence,shrunken log2 fold change
1,RRIRPRPPRLPRPRPRPVGEPRP,0.415
2,RRIRSRPPRLPRPRPRPKNKPRP,-0.242
3,RRIRTRPPRLPRPRPRPRYIPRP,-0.368
4,RRIRGRPPRLPRPRPRPNIHPRP,0.0679
5,RRIRRRPPRLPRPRPRPQIIPRP,-0.0755
6,RRIRGRPPRLPRPRPRPTEGPRP,0.795
7,RRIRDRPPRLPRPRPRPPLSPRP,0.0434
8,RRIRKRPPRLPRPRPRPVCGPRP,0.62
9,RRIRMRPPRLPRPRPRPWTIPRP,-0.0577
10,RRIRYRPPRLPRPRPRPIDMPRP,-0.315
11,RRIRKRPPRLPRPRPRPSHQPRP,-0.146
12,RRIRYRPPRLPRPRPRPQYRPRP,-0.148
13,RRIRERPPRLPRPRPRPYTFPRP,-0.282
14,RRIRARPPRLPRPRPRPQACPRP,0.0559
15,RRIRSRPPRLPRPRPRPCPTPRP,-0.138
16,RRIRCRPPRLPRPRPRPPEDPRP,0.754
17,RRIRPRPPRLPRPRPRPNDEPRP,0.0306
18,RRIRNRPPRLPRPRPRPDESPRP,-0.109
19,RRIRWRPPRLPRPRPRPCTRPRP,-0.161
20,RRIRKRPPRLPRPRPRPISEPRP,0.213
21,RRIRCRPPRLPRPRPRPTLRPRP,0.15
22,RRIRVRPPRLPRPRPRPMCYPRP,-0.306
23,RRIRNRPPRLPRPRPRPAYHPRP,-0.385
24,RRIRNRPPRLPRPRPRPNTAPRP,0.0213
25,RRIRRRPPRLPRPRPRPNDVPRP,-0.0736

row,Sequence,shrunken log2 fold change
1,RRIRHRPPRLPRPRPRPATVPRP,0.00308
2,RRIRERPPRLPRPRPRPFTYPRP,-0.0534
3,RRIRQRPPRLPRPRPRPMLQPRP,0.00663
4,RRIRFRPPRLPRPRPRPLFFPRP,-0.259
5,RRIRCRPPRLPRPRPRPNCGPRP,-0.281
6,RRIRHRPPRLPRPRPRPISCPRP,-0.0318
7,RRIRLRPPRLPRPRPRPAEVPRP,-0.193
8,RRIRCRPPRLPRPRPRPCVRPRP,-0.163
9,RRIRARPPRLPRPRPRPETYPRP,0.0388
10,RRIRSRPPRLPRPRPRPSDLPRP,-0.254
11,RRIRCRPPRLPRPRPRPPHEPRP,1.23
12,RRIRERPPRLPRPRPRPERWPRP,-0.00254
13,RRIRHRPPRLPRPRPRPNSMPRP,-0.401
14,RRIRKRPPRLPRPRPRPAGSPRP,0.0961
15,RRIRVRPPRLPRPRPRPRKFPRP,0.0551
16,RRIRDRPPRLPRPRPRPNIRPRP,-0.0481
17,RRIRRRPPRLPRPRPRPTRVPRP,0.952
18,RRIRRRPPRLPRPRPRPWWAPRP,0.0813
19,RRIRNRPPRLPRPRPRPITKPRP,-0.113
20,RRIRSRPPRLPRPRPRPWYMPRP,-0.262
21,RRIRARPPRLPRPRPRPAACPRP,0.754
22,RRIRFRPPRLPRPRPRPGGGPRP,0.727
23,RRIRKRPPRLPRPRPRPCRFPRP,0.0338
24,RRIRFRPPRLPRPRPRPTYTPRP,-0.719
25,RRIRQRPPRLPRPRPRPILRPRP,0.034

row,Sequence,shrunken log2 fold change
1,RRIRNRPPRLPRPRPRPVDIPRP,0.00355
2,RRIRLRPPRLPRPRPRPKREPRP,0.0937
3,RRIRMRPPRLPRPRPRPLQYPRP,-0.106
4,RRIRMRPPRLPRPRPRPRYTPRP,0.338
5,RRIRFRPPRLPRPRPRPGSHPRP,-0.225
6,RRIRSRPPRLPRPRPRPIYHPRP,-0.884
7,RRIRQRPPRLPRPRPRPARYPRP,0.0932
8,RRIRTRPPRLPRPRPRPKQNPRP,0.638
9,RRIRGRPPRLPRPRPRPLSKPRP,0.425
10,RRIRMRPPRLPRPRPRPGEHPRP,0.987
11,RRIRMRPPRLPRPRPRPNWDPRP,0.0485
12,RRIRTRPPRLPRPRPRPGGGPRP,0.759
13,RRIRWRPPRLPRPRPRPHWSPRP,-0.182
14,RRIRWRPPRLPRPRPRPYIKPRP,-0.736
15,RRIRIRPPRLPRPRPRPWSVPRP,-0.541
16,RRIRNRPPRLPRPRPRPAGPPRP,-0.0019
17,RRIRYRPPRLPRPRPRPARCPRP,0.0957
18,RRIRTRPPRLPRPRPRPIWNPRP,-0.169
19,RRIRKRPPRLPRPRPRPDLKPRP,0.131
20,RRIRSRPPRLPRPRPRPRAAPRP,0.504
21,RRIRQRPPRLPRPRPRPRKFPRP,0.214
22,RRIRPRPPRLPRPRPRPHWQPRP,0.358
23,RRIRARPPRLPRPRPRPAESPRP,0.531
24,RRIRKRPPRLPRPRPRPWHRPRP,-0.0754
25,RRIRYRPPRLPRPRPRPEDHPRP,-0.581

row,Sequence,shrunken log2 fold change
1,RRIRCRPPRLPRPRPRPHEFPRP,-0.267
2,RRIRKRPPRLPRPRPRPWLHPRP,0.24
3,RRIRYRPPRLPRPRPRPNHVPRP,-0.219
4,RRIRIRPPRLPRPRPRPPPYPRP,-0.177
5,RRIRRRPPRLPRPRPRPYLYPRP,-0.362
6,RRIRYRPPRLPRPRPRPIFHPRP,-0.456
7,RRIRGRPPRLPRPRPRPQGNPRP,0.236
8,RRIRCRPPRLPRPRPRPIIYPRP,-0.739
9,RRIRDRPPRLPRPRPRPKMYPRP,0.0269
10,RRIRYRPPRLPRPRPRPAVCPRP,-0.0135
11,RRIRNRPPRLPRPRPRPIIIPRP,-0.663
12,RRIRTRPPRLPRPRPRPIRSPRP,0.0601
13,RRIRYRPPRLPRPRPRPMHMPRP,-0.113
14,RRIRGRPPRLPRPRPRPPHWPRP,0.96
15,RRIRVRPPRLPRPRPRPVQPPRP,0.114
16,RRIRDRPPRLPRPRPRPFVGPRP,-0.0346
17,RRIRHRPPRLPRPRPRPLMYPRP,-0.711
18,RRIRERPPRLPRPRPRPWDIPRP,-0.0155
19,RRIRDRPPRLPRPRPRPPMGPRP,0.283
20,RRIRMRPPRLPRPRPRPLADPRP,3.11
21,RRIRMRPPRLPRPRPRPIHHPRP,-0.724
22,RRIRHRPPRLPRPRPRPGSYPRP,-0.287
23,RRIRSRPPRLPRPRPRPDNWPRP,-0.39
24,RRIRPRPPRLPRPRPRPSNDPRP,-0.288
25,RRIRKRPPRLPRPRPRPEVYPRP,-0.0138
